From patent US20240026004A1 (SHANGHAI HUAOTA BIOPHARMACEUTICAL, published 2024)
Positions count from the first letter of the chain named. Values belong to the binder of their own block, whether it stands above or below them.

Tests used:
Human LAP = target: T1, Human LAP (human, UniProt P01137 30-278); experiment: SPR (BIAcore), HB0028 captured on Protein A chip, TGF-β protein as analyte
T1 construct: domain: LAP; also called precursor of TGF-β1 (Human LAP)
Experimental: (§1) Flow rate: 30 μl/min, binding: 120 s, dissociation: 600 s, analyzing the kinetic constants by Fit local using a 1:1 binding mode.

Mouse precursor TGF-β1 = target: T2, Mouse precursor TGF-β1 (mouse, UniProt P04202 30-390, limits assumed); experiment: as above
T2 construct: Latent/precursor form as printed; also called Mouse Latent TGF-β1
Experimental: as §1

Rat PD-L1 = target: T3, Rat PD-L1 (rat, UniProt D4AE25 19-239); experiment: SPR (BIAcore), HB0028 captured on anti-human IgG (Fc) chip, PD-L1 as analyte
T3 construct: also called PD-L1 in rats
Experimental: as §1

Rabbit PD-L1 = target: T4, Rabbit PD-L1 (rabbit, UniProt G1SUI3 19-236); experiment: as above
T4 construct: also called PD-L1 in rabbits
T4 sequence: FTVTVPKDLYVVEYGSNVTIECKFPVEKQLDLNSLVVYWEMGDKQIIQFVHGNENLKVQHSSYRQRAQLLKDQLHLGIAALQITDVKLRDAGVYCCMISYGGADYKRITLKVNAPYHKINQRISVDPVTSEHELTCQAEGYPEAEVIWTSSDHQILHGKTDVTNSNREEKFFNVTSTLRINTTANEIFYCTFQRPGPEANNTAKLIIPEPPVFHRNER
Experimental: as §1

Mouse PD-L1 = target: T5, Mouse PD-L1 (mouse, UniProt Q9EP73 19-238, limits assumed); experiment: as above
T5 construct: also called PD-L1 in mice
Experimental: as §1

human TGF-β1 [1] = target: T6, human TGF-β1 (human, UniProt P01137 279-390); experiment: ELISA, TGF-β1 coated at 0.5 µg/ml, HRP anti-human IgG detection, OD450
T6 construct: also called TGF-β1 (ACRO, TG1-H4212); free TGF-β protein
Experimental: (§2) After washing with PBST, into the plates was added HRP-labeled anti-human IgG secondary antibody (1:5000 dilution) at 100 μl/well, reacted at room temperature for 30 min, and then washed with PBST. After developing with TMB color development solution for 5 min, the reaction was terminated with sulfuric acid, and OD450 value was read by a microplate reader.

Mouse/Rat TGF-β1 = Mouse/Rat TGF-β1 (mouse/rat, UniProt P04202 279-390); experiment: SPR (BIAcore), HB0028 captured on Protein A chip, TGF-β protein as analyte, 1:1 fit
Experimental: as §1

Human TGF-β2 = target: T7, Human TGF-β2 (human, UniProt P61812 303-414); experiment: as above
T7 sequence (looked up): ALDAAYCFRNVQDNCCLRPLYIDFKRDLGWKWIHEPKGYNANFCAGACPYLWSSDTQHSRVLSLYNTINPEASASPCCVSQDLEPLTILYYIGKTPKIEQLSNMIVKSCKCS
Experimental: as §1

Mouse/Rat TGF-β2 = target: T8, Mouse/Rat TGF-β2 (mouse/rat, UniProt P27090 303-414); experiment: as above
T8 sequence (looked up): T7 sequence (looked up) with S59T, R60K, K94N
Experimental: as §1

human TGF-β1 [2] = target: T6, human TGF-β1; experiment: as above
Experimental: as §1

[3] = target: Human PD-L1 (BIAcore analyte) (human, UniProt Q9NZQ7 19-238, limits assumed); experiment: SPR (BIAcore), HB0028 captured on anti-human IgG (Fc) chip, PD-L1 as analyte, 1:1 fit
Experimental: as §1

Monkey PD-L1 = target: T9, Monkey PD-L1 (monkey); experiment: as above
T9 construct: also called PD-L1 in monkeys
Experimental: as §1

[4] = target: T10, human PD-L1 on CHO-K1 cells (human, UniProt Q9NZQ7 19-290); experiment: flow cytometry on CHO-K1 cells overexpressing human PD-L1, PE anti-human IgG detection, median fluorescence intensity
T10 construct: whole, on cells; also called CHO-K1 cells overexpressing human PD-L1; CHO-K1-OS8-PD-L1-8D6 cells
Experimental: CHO-K1 cells overexpressing human PD-L1 were taken and resuspended to 1×10⁶/ml and added into a 96-well plate at 20 μl/well.

[5] = target: T10, human PD-L1 on CHO-K1 cells; experiment: dual-target flow cytometry: sample pre-mixed with 3 µg/ml human TGF-β1, then CHO-K1 cells overexpressing human PD-L1, detection with PE anti-human TGF-β1 antibody (signal needs PD-L1 and TGF-β1 bound at once)
Experimental: After then, CHO-K1 cells overexpressing human PD-L1 were taken and resuspended to 1×10⁶/ml, added into a 96-well plate at 20 μl/well, and incubated for min after being mixed uniformly. The plate was washed twice by centrifugation with 1% BSA-PBS. Into each well was added 20 μl of PE fluorescence labeled anti-human TGF-β1 secondary antibody (1:100), incubated at room temperature for 15 min, washed three times by centrifugation, and then tested for the emission intensity at 580 nm by a flow cytometer Canto II (BD).

human TGF-β3 = target: T11, human TGF-β3 (human, UniProt P10600 301-412); experiment: ELISA, TGF-β3 coated at 0.5 µg/ml, HRP anti-human IgG detection, OD450
T11 construct: also called TGF-β3 (R&D, 8420-B3-025)
T11 sequence (looked up): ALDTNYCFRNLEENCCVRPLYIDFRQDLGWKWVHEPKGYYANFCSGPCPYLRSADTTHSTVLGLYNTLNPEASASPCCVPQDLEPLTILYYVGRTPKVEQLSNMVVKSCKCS
Experimental: as §2

T6 sequence (P01137 279-390 limits assumed): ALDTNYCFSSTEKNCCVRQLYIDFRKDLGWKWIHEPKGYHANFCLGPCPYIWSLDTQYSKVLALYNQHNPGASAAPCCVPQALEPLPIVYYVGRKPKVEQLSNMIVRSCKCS
T10 sequence (Q9NZQ7 19-290): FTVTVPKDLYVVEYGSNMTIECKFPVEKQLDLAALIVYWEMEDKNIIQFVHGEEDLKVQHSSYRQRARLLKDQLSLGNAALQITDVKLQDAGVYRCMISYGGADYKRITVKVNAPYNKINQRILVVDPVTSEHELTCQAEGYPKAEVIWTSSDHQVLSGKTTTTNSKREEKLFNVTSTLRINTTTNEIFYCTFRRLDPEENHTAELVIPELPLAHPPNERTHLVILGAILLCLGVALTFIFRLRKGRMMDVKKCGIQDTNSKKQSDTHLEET
T2 sequence (P04202 30-390 limits assumed): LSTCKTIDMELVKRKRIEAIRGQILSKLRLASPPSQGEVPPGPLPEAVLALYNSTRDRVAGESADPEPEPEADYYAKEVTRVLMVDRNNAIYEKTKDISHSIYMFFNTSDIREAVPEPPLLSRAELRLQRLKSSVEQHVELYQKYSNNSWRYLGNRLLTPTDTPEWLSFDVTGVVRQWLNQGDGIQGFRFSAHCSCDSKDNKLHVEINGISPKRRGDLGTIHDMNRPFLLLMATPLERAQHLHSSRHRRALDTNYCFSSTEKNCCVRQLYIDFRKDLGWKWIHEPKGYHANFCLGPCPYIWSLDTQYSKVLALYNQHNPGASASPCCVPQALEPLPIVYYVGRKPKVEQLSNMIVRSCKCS
Sequence of Human PD-L1 (BIAcore analyte) (Q9NZQ7 19-238 limits assumed): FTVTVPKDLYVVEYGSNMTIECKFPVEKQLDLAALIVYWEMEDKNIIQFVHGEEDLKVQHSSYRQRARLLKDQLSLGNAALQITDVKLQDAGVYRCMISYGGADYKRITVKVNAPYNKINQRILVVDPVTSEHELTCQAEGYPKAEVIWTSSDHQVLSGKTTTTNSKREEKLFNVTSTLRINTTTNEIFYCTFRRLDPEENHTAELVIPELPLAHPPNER
T5 sequence (Q9EP73 19-238 limits assumed): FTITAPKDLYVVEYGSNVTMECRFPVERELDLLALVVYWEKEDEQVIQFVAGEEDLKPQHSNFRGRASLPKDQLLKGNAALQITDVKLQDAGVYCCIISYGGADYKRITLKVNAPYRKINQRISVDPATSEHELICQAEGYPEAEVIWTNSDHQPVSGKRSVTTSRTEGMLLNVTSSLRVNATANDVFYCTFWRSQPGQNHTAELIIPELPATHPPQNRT
Sequence of Mouse/Rat TGF-β1 (P04202 279-390 limits assumed): as the sequence (P01137 279-390 limits assumed) above, with A75S counted along it
T1 sequence (P01137 30-278 limits assumed): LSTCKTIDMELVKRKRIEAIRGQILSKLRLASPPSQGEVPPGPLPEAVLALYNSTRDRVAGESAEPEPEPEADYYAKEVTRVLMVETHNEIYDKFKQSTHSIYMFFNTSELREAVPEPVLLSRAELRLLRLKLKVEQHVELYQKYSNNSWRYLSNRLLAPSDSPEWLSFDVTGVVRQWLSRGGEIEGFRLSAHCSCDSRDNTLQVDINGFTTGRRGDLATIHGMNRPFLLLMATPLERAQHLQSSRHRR
T3 sequence (D4AE25 entry or part of it limits assumed): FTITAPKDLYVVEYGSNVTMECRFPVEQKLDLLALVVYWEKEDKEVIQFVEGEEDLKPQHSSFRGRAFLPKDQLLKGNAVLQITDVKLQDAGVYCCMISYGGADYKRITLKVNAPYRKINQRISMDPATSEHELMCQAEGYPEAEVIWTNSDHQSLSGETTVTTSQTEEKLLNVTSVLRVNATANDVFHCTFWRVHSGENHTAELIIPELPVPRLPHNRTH

- binding result (Human LAP): no binding
- binding result (Mouse precursor TGF-β1): no binding
- binding result (Rat PD-L1): no binding
- binding result (Rabbit PD-L1): no binding
- binding result (Mouse PD-L1): no binding
- EC50 (human TGF-β1 [1]): 0.347 nM
- Kd (Mouse/Rat TGF-β1): 0.00275 nM
- Kd (Human TGF-β2): 1.56 nM
- Kd (Mouse/Rat TGF-β2): 1.97 nM
- Kd (human TGF-β1 [2]): 0.0114 nM
- Kd [3]: 2.45 nM
- Kd (Monkey PD-L1): 5.87 nM
- EC50 [4]: 3.77 nM
- EC50 [5]: 4.22 nM
B1: HB0028 (bispecific antibody, human IgG1, kappa)
heavy: not shown
light: DVVMTQTPLSLSVTPGQPASISCKSSQSLANSYGNTYLSWYLHKPGQSPQLLIYGISNRFSGVPDRFSGSGSGTDFTLKISRVEAEDVGVYYCLQGTHQPPTFGQGTKLEIKRTVAAPSVFIFPPSDEQLKSGTASVVCLLNNFYPREAKVQWKVDNALQSGNSQESVTEQDSKDSTYSLSSTLTLSKADYEKHKVYACEVTHQGLSSPVTKSFNRGEC
notes: also called N-fusion PD-L1/TGF-β bispecific antibody; heavy chain 500054 + light chain 400085

- EC50 (human TGF-β1 [1]): 0.955 nM
- EC50 (human TGF-β3): 1.51 nM
- EC50 [4]: 1.85 nM
- EC50 [5]: 1.61 nM
B2: HB0029 (bispecific antibody, human IgG1, kappa)
heavy: not shown
light: B1 light
notes: Heavy chain from N to C: VH of HB0023, wild-type human IgG1 constant region, GS linker, human TGF-βRII ECD 24-159; Same light chain as HB0028; also called C-fusion PD-L1/TGF-β bispecific antibody; heavy chain 500055 + light chain 400085

- EC50 (human TGF-β1 [1]): 0.652 nM
B3: TGFβRII (Fc fusion)
chain: TIPPHVQKSVNNDMIVTDNNGAVKFPQLCKFCDVRFSTCDNQKSCMSNCSITSICEKPQEVCVAVWRKNDENITLETVCHDPKLPYHDFILEDAASPKCIMKEKKKPGETFFMCSCSSDECNDNIIFSEEYNTSNPD
